Laboratory results taken from US20180172683A1 (published 2018).
Ends that are not written are not given here. Ser‑Gly linker = flexible serine-glycine linker, six amino acids long

What was measured:
[1] = molecular target: T1, B-cell lymphoma extra-large protein (Bcl-xL), first 209 amino acids with N-terminal avitag (UniProt Q07817 1-209, biotin on the avitag (BirA biotin ligase); a non-biotinylated form was used as the excess competitor in solution in the off-rate assays); assay: radiolabeled HA-tagged peptide off-rate from immobilized Bcl-xL
T1 construct: range 1-209; Expressed in E. coli BL21(DE3); Used in solution (forward assays) or immobilized through biotin on streptavidin plates or beads (reverse assay, off-rate and HTSK experiments); not shown: His tag implied (pET24a NdeI/XhoI, Ni-NTA purification, anti-HIS probe)
Description: The radiolabeled peptides were allowed to bind to 30 pmol immobilized Bcl-xL for 1 hour in sample buffer (1×PBS, 1% (w/v) BSA, 0.1% (v/v) Tween 20, 10 μM biotin). The beads were magnetically separated, and washed 5× with sample buffer. The beads were resuspended in 1 mL of sample buffer containing 3 μM non-biotinylated Bcl-xL (˜100× molar excess relative to immobilized biotinylated Bcl-xL). At various time points, 100 μL of slurry was removed and the beads were magnetically separated and washed. The percent remaining at each time point was determined by dividing the counts per minute (cpm) on beads by total cpm (beads+washes). The peptide off-rate was determined by an exponential fit of the Percent counts on beads vs. Time (s).
The peptide ligands were made using a C-terminal HA tag, and affinity purified.

[2] = molecular target: T1, B-cell lymphoma extra-large protein …; assay: radiolabeled peptide off-rate, reference D1

T1 sequence (Q07817 other isoform, or with tags, fused parts or gaps): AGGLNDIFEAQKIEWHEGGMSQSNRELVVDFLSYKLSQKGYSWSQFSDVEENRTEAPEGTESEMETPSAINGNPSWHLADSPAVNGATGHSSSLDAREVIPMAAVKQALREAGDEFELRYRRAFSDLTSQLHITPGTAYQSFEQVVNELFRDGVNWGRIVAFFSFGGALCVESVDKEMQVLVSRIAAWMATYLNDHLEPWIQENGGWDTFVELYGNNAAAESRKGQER

koff [1]: 5.9e-07 s⁻¹
fold slower off-rate than D1 [2]: > 3 fold
B1: D79, radiolabeled in vitro translated peptide with C-terminal serine-glycine linker and HA tag (peptide)
peptide: MIDTNVILNYKKAADHFSITM-{Ser‑Gly linker-HA tag}
modifications: also: 35S-labeled methionine
notes: Frequency rank 79 in the doped selection pool; also called peptide D79; not shown: flexible serine-glycine linker, six amino acids long; HA tag
